4 molecules from patent publication US20020172962, “Methods of producing nucleic acid ligands” (GILEAD SCIENCES, INC., published 2002) can be followed below.

Data set [1] concerns the target T1, HIV-1 Rev (HIV-1, UniProt P04618 P04618:1-116). The data set is described as follows: footprint; 200 mM KOAc, 50 mM Tris pH 7.7, 1 mM DTT, 5 mM MgCl2; 500 nM Rev. As to conditions: tags: American Biotechnologies, Inc. The procedure: (§1) Chemical Modification of RNA. Chemical modification techniques for nucleic acids are described in general in Ehresmann et al. (1987) Nucleic Acids Research 15:9109-9128. Modification of RNA under native conditions was performed in 200 mM KOAc, 50 mM Tris-HCl pH 7.7, 1 mM EDTA at 37° C. Modification under denaturing conditions was done in 7 M urea, 50 mM Tris-HCl pH 7.7 at 90° C. Concentration of modifying agents and incubation times are as follows: ethylnitrosourea (ENU)-1/5 dilution v/v of ethanol saturated with ENU, native 1-3 hours, denaturing 5 minutes; dimethyl sulfate (DMS)-1/750-fold dilution v/v, native 8 minutes, denaturing 1 minute; kethoxal- 0.5 mg/ml, native 5 minutes, denaturing 2 minutes; carbodiimide (CMCT)-10 mg/ml, native 30 minutes, denaturing 3 minutes; diethyl pyrocarbonate (DEPC)-1/10 dilution v/v, native 10 minutes, denaturing 1 minute.
Modification of RNA in the presence of Rev. “Footprinting” of the Rev ligand, modification of the RNA ligand in the presence of Rev protein, was performed in 200 mM KOAc, 50 mM Tris-Cl pH 7.7, 1 mM DTT, and 5 mM MgCl₂. Concentration of protein was 500 nanomolar, and approximately in 3-fold molar excess over RNA concentration. Modification with protein present was attempted with all modifying agents listed above except ethylnitrosourea (ENU).

Data set [2] has as its target T2, HIV-1 reverse transcriptase (HIV-RT) (HIV-1, UniProt P03366;P03366 P03366:600-1159,P03366:600-1039). In words: filter; selected by HIV-RT from mixed 2'-OMe/2'-OH population.
In data set [3] the target is T1, HIV-1 Rev. The data set is described as follows: filter; high-affinity ligand; modification interference; 200 mM KOAc, 50 mM Tris pH 7.7, 10 mM DTT, 37 C. As to conditions: tags: American Biotechnologies, Inc. How it is done: as §1
Modification interference of Rev binding. RNAs chemically modified under denaturing conditions were selected for Rev binding through filter partitioning. […]
The extent of modification interference was determined by densitometric scanning of autoradiographs using LKB (ENU) and Molecular Dynamics (DMS, kethoxal, CMCT, and DEPC) laser densitometers. […]

In data set [4] the target is T2, HIV-1 reverse transcriptase (HIV-RT). The data set is described as follows: footprint; chemical protection and modification interference. From the text:
Selection of modified RNAs by HIV-RT. Binding reactions were as above except that rather than to vary the amount of HIV-RT added to a reaction, the volume of reaction was increased in order to lower concentration. RNAs that were modified under denaturing conditions were selected at concentrations of 20, 4 and 0.8 nanomolar HIV-RT (in volumes of 1, 5 and 25 mls of binding buffer.) The amount of RNA added to each reaction was equivalent for each experiment (approximately 1-5 picomoles). RNA was eluted from filters as described in Tuerk et al. (1990) J. Mol. Biol. 213:749; Tuerk and Gold (1990) Science 249:505-510, and assayed for modified positions. In each experiment a control was included in which unselected RNA was spotted on a filter, eluted and assayed for modified positions in parallel with the selected RNAs. Determinations of variation in chemical modification for selected versus unselected RNAs were made by visual inspection of exposed films of electrophoresed assay products with the following exceptions. The extent of modification interference by ENU was determined by densitometric scanning of films using an LKB laser densitomer. An index of modification interference (M.I.) at each position was calculated as follows:
Assay of chemical modification. […]

T1 sequence (P04618 whole entry, one chain of several): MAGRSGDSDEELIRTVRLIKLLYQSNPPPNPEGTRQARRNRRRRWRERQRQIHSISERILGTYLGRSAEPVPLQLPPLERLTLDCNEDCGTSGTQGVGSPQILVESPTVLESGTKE

B1: extended Rev ligand 6a (ssRNA)
RNA: GGGUGCAUUGAGAAACACGUUUGUGGACUCUGUAUCUAUGAAAGAAUUUUAUAUCUCUAUUGAAAC
For the molecule B1, the binding result in data set [1] is on record as “binds”.

B2: 2'-methoxy mixed ligand B oligonucleotide (mixed)
RNA: AAAAAUCCGAAGUGCAACGGGAAAAUGCACU
modifications: AAAAA 5' tail deoxy; UCCGA and ACGGGAAAA mixed 2'-OH/2'-OMe; AGUGCA and UGCACU 2'-OMe
Turning to B2, the binding result in data set [2] is listed as “binds”.
As to GGGUGCAUUGAGAAACACGUUUGUGGACUCUGUAUCU (ssRNA) [Rev ligand 6a], the binding result in data set [3] is on record as “binds”.

B3: lengthened ligand B (ssRNA)
RNA: GGUCCGAAGUGCAACGGGAAAAUGCACUAUGAAAGAAUUUUAUAUCUCUAUUGAAAC
Consider B3, for which the binding result in data set [4] is “binds”.
